Measured values taken from the supplement of paper PMC10126150.
± gives the standard deviation of the averaged measurements.

System: ATP
Assay: switch fluorescence ratio, 500 uM ATP over buffer (Cy3 cluster intensity, sum of 5 cycles each) (fold (ratio)); higher = stronger signal-on switching upon ATP binding; sequences stand for … in TCGTCGGCAGCGTCAGATGTGTATAAGAGACAGTTTTTTTTTTTTTTTTTTTTTTTTT…TC
Settings: aptamer strand: ATP DNA aptamer (quencher-CACCTGGGGGAGTATTGCGGAGGAAGG + anchor), 100 nM annealed; ATP concentration: 500 uM
Procedure, shortened: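 Cy3-labelled switching-strand clusters on a modified Illumina MiSeq flow-cell were annealed to 100 nM quencher-labelled ATP aptamer and imaged first in selection buffer, then after 15 min with 500 uM ATP at 22 °C. NaOH stripping and re-annealing separated each of five buffer/ATP cycles, and clusters outside 100-1000 RFU were excluded. The fluorescence ratio sums target-cycle Cy3 intensity over buffer-cycle Cy3 intensity per cluster and averages it per switch-domain sequence.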
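Further: ATP exposure 15 min at 22 °C before imaging.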

| Sequence | switch fluorescence ratio |
| --- | --- |
| ATAGGGAGGG | 1.012 ± 0.0048 |
| ATAGGGCACA | 1.08 ± 0.015 |
| ATAGGGGACG | 1.01 ± 0.049 |
| ATAGGGGTGG | 1.03 ± 0.018 |
| ATAGGGTGCG | 1 ± 0.03 |
| ATAGGTAGGT | 0.996 ± 0.004 |
| ATAGGTAGTC | 0.996 ± 0.02 |
| ATAGGTCCCG | 1 ± 0.017 |
| ATAGGTGCGG | 0.985 ± 0.021 |
| ATAGTAATCT | 0.993 ± 0.056 |
| ATAGTACAGG | 1.08 ± 0.011 |
| ATAGTACTCG | 1.06 ± 0.057 |
| ATAGTAGGTT | 1.01 ± 0.017 |
| ATAGTCAATT | 0.993 ± 0.071 |
| ATAGTCACAT | 1.02 ± 0.021 |
| ATAGTCAGTA | 1.01 ± 0.019 |
| ATAGTCCAGC | 0.988 ± 0.035 |
| ATAGTCTACG | 1.02 ± 0.042 |
| ATAGTGGAGA | 1.01 ± 0.024 |
| ATAGTGGGAG | 0.992 ± 0.04 |
| ATAGTGGGTC | 1.04 ± 0.025 |
| ATAGTGTGTG | 1.004 ± 0.008 |
| ATAGTTAGGT | 1.03 ± 0.029 |
| ATAGTTGGTG | 0.994 ± 0.029 |
| ATAGTTGTGA | 0.987 ± 0.024 |
| ATATAAAATG | 0.986 ± 0.0046 |

| Sequence | switch fluorescence ratio |
| --- | --- |
| ATATAAAGGA | 1.01 ± 0.024 |
| ATATAAATGT | 1.019 ± 0.0066 |
| ATATAAATTA | 1.01 ± 0.05 |
| ATATAAGGGA | 1 ± 0.019 |
| ATATAAGGGC | 1 ± 0.074 |
| ATATACATGG | 1.01 ± 0.035 |
| ATATACTAGA | 1.03 ± 0.049 |
| ATATAGAAAG | 1.02 ± 0.045 |
| ATATAGTAAT | 0.9842 ± 0.0078 |
| ATATATAAGT | 0.972 ± 0.011 |
| ATATATACTG | 1.05 ± 0.071 |
| ATATATGCGG | 1.11 ± 0.12 |
| ATATATGCTC | 1.01 ± 0.016 |
| ATATATTGTA | 1.001 ± 0.0059 |
| ATATATTTTG | 0.972 ± 0.03 |
| ATATCAGCAT | 1.065 ± 0.005 |
| ATATCGACGT | 1 ± 0.013 |
| ATATCTAAGT | 0.9984 ± 0.0034 |
| ATATCTTAGT | 1.017 ± 0.00089 |
| ATATCTTTCG | 1.02 ± 0.014 |
| ATATGACGGT | 0.98 ± 0.029 |
| ATATGAGGCG | 1.05 ± 0.042 |
| ATATGAGTGC | 0.951 ± 0.07 |
| ATATGGATGG | 0.986 ± 0.025 |
| ATATGGGGGC | 0.972 ± 0.059 |
| ATATGGGTTT | 1.01 ± 0.033 |

| Sequence | switch fluorescence ratio |
| --- | --- |
| ATATGGTCAT | 0.9719 ± 0.0021 |
| ATATGTGATG | 0.997 ± 0.021 |
| ATATGTGGGC | 0.9577 ± 0.0068 |
| ATATTAAAAG | 0.9959 ± 0.0043 |
| ATATTAAGTT | 1.01 ± 0.003 |
| ATATTACTAG | 0.989 ± 0.035 |
| ATATTAGAAC | 1.01 ± 0.0027 |
| ATATTAGAGG | 0.998 ± 0.037 |
| ATATTAGGGT | 1.01 ± 0.042 |
| ATATTAGTCT | 1.001 ± 0.0035 |
| ATATTATGGA | 1 ± 0.02 |
| ATATTATTCT | 1.005 ± 0.0096 |
| ATATTATTGA | 0.9818 ± 0.0049 |
| ATATTCAGGG | 1.01 ± 0.031 |
| ATATTCGCTC | 1.12 ± 0.1 |
| ATATTCTTGG | 0.9852 ± 0.0026 |
| ATATTGCCTA | 1.003 ± 0.0074 |
| ATATTGTCGT | 1.011 ± 0.0053 |
| ATATTGTTGT | 0.997 ± 0.057 |
| ATATTGTTTG | 1.01 ± 0.1 |
| ATATTTATAG | 0.9944 ± 0.0071 |
| ATATTTCACT | 1.03 ± 0.012 |
| ATATTTGACA | 1.01 ± 0.026 |
| ATATTTGGGG | 1.02 ± 0.046 |
| ATATTTGGTT | 0.985 ± 0.034 |
| ATATTTTAAG | 0.994 ± 0.034 |

| Sequence | switch fluorescence ratio |
| --- | --- |
| ATCAAAGGTT | 1.03 ± 0.051 |
| ATCAAGGGGG | 0.992 ± 0.034 |
| ATCAAGGGTG | 1.11 ± 0.013 |
| ATCAAGGTTC | 0.9917 ± 0.0095 |
| ATCAAGTCTT | 0.99 ± 0.016 |
| ATCAATATGT | 0.996 ± 0.029 |
| ATCAATTGTC | 1.07 ± 0.025 |
| ATCACCGCGC | 1.59 ± 0.093 |
| ATCACTGGGC | 1.1 ± 0.092 |
| ATCACTGGGT | 0.9976 ± 0.0051 |
| ATCAGATGAT | 1.0009 ± 0.00017 |
| ATCAGCTGTG | 1.02 ± 0.024 |
| ATCAGGAAGT | 0.992 ± 0.062 |
| ATCAGGCGGA | 1 ± 0.045 |
| ATCAGGGTGG | 0.987 ± 0.032 |
| ATCAGGGTTT | 1.005 ± 0.0057 |
| ATCAGTAAAA | 1.01 ± 0.035 |
| ATCAGTGATG | 1 ± 0.046 |
| ATCAGTGGTT | 0.974 ± 0.013 |
| ATCAGTGTGG | 0.967 ± 0.038 |
| ATCATACCGG | 1 ± 0.035 |
| ATCATACGGA | 1.034 ± 0.0088 |
| ATCATATGGA | 0.985 ± 0.037 |
| ATCATCGCTA | 1.094 ± 0.0084 |
| ATCATCGGGA | 1.01 ± 0.013 |
| ATCATGACTG | 1.015 ± 0.005 |

| Sequence | switch fluorescence ratio |
| --- | --- |
| ATCATGAGTC | 0.972 ± 0.03 |
| ATCATGCTGT | 0.9976 ± 0.0017 |
| ATCATGGGGT | 0.984 ± 0.041 |
| ATCATGGGTA | 0.9757 ± 0.0069 |
| ATCATGTGCA | 0.9627 ± 0.0073 |
| ATCATGTGGG | 0.999 ± 0.018 |
| ATCATGTGTA | 1.01 ± 0.04 |
| ATCATTGAGA | 0.9972 ± 0.0043 |
| ATCATTGGG | 1.014 ± 0.008 |
| ATCATTTGGG | 0.997 ± 0.039 |
| ATCATTTTTA | 1.01 ± 0.02 |
| ATCATTTTTG | 1 ± 0.025 |
| ATCCCAGGGT | 1.89 ± 0.076 |
| ATCCGAACGG | 1.03 ± 0.048 |
| ATCCGCGATT | 4.88 ± 1.1 |
| ATCCGCGGTG | 1.18 ± 0.075 |
| ATCCGGGCGC | 1.08 ± 0.1 |
| ATCCGTATGT | 1.05 ± 0.014 |
| ATCCTAGGGC | 1.007 ± 0.0095 |
| ATCCTCTTGC | 1.09 ± 0.036 |
| ATCCTTAAGG | 0.961 ± 0.026 |
| ATCCTTCTAA | 1.05 ± 0.018 |
| ATCCTTGATA | 1.03 ± 0.016 |
| ATCGAAAGGG | 1.01 ± 0.054 |
| ATCGAAGGCA | 0.9862 ± 0.008 |
| ATCGAATAGG | 0.9872 ± 0.0022 |

| Sequence | switch fluorescence ratio |
| --- | --- |
| ATCGAATCCT | 1.09 ± 0.012 |
| ATCGAATTTT | 1 ± 0.061 |
| ATCGAGCCGG | 0.98 ± 0.049 |
| ATCGAGTCTA | 0.953 ± 0.017 |
| ATCGAGTGCT | 0.952 ± 0.016 |
| ATCGAGTTAG | 0.978 ± 0.012 |
| ATCGCATTG | 1.24 ± 0.34 |
| ATCGCCAGGC | 1.014 ± 0.0044 |
| ATCGCCGGGG | 1.02 ± 0.045 |
| ATCGCGGGGT | 0.979 ± 0.025 |
| ATCGCTGGGT | 1.01 ± 0.019 |
| ATCGGAGCGG | 1.02 ± 0.031 |
| ATCGGAGGGA | 0.986 ± 0.028 |
| ATCGGATTAT | 0.969 ± 0.047 |
| ATCGGATTGG | 1.03 ± 0.072 |
| ATCGGCCATG | 0.988 ± 0.011 |
| ATCGGCTGTG | 0.983 ± 0.022 |
| ATCGGGAGGT | 1.04 ± 0.061 |
| ATCGGGCGTA | 1.01 ± 0.044 |
| ATCGGGGTC | 0.983 ± 0.027 |
| ATCGGGGTCA | 1.01 ± 0.027 |
| ATCGGGGTTG | 0.958 ± 0.017 |
| ATCGGGTTTG | 0.977 ± 0.03 |
